Patent US20120107330A1 (published 2012)
Residue numbers refer to the chain shown, from its start. Each block holds one binder with its values, some of them ahead of it.

Key:
[1] = biological target: T1, human TNFR1 (recombinant, R&D Systems cat no. 636-R1/CF, biotinylated) (human, UniProt P19438 30-211, limits assumed, biotinylated with EZ-Link NHS-LC-LC-biotin); test: BIAcore, TNFR1 (species not given, taken as human)
T1 construct: it is not tied to the BIAcore reagent; also called p55; hTNFR1
T1 sequence (looked up): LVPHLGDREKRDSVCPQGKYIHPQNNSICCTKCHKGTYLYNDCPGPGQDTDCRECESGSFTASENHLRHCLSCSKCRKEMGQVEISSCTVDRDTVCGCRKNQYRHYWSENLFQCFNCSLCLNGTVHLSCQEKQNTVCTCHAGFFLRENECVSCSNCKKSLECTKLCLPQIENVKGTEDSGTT

[2] = biological target: T2, human TNFR1 on MRC-5 cells (human, UniProt P19438 30-455); test: cell-based or functional assay
T2 sequence (looked up): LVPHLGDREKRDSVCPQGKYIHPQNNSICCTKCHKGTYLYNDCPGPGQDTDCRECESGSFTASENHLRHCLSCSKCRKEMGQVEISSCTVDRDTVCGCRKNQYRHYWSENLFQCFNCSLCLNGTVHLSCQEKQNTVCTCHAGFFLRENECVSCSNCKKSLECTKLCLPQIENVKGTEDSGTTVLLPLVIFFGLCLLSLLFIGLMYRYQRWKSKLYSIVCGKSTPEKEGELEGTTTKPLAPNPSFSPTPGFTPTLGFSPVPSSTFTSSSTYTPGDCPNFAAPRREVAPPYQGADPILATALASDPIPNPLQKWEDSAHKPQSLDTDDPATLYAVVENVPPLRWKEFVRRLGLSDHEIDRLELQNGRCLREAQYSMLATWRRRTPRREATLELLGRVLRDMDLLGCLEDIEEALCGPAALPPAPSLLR

[3] = biological target: T3, mouse TNFR1 on L929 cells (mouse, UniProt P25118 30-454); test: cell-based or functional assay
T3 sequence (looked up): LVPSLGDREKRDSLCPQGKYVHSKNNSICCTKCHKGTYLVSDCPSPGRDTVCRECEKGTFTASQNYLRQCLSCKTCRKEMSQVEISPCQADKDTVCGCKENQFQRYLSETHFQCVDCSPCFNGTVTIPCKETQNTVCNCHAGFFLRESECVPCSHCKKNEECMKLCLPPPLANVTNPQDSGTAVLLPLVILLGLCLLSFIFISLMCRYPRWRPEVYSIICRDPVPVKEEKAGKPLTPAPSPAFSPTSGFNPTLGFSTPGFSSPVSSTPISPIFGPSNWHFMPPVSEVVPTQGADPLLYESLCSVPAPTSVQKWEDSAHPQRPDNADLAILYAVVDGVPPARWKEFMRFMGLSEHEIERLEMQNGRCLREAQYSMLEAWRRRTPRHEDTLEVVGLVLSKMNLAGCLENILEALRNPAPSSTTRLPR

[4] = biological target: T4, mouse TNFR1 (recombinant, R&D Systems cat no. 425-R1-050/CF, biotinylated) (mouse, UniProt P25118 22-212, biotinylated with EZ-Link NHS-LC-LC-biotin); test: BIAcore, mouse TNFR1 on SA chip
T4 construct: also called murine TNFR1; biotinylated mouse TNFR1
T4 sequence (looked up): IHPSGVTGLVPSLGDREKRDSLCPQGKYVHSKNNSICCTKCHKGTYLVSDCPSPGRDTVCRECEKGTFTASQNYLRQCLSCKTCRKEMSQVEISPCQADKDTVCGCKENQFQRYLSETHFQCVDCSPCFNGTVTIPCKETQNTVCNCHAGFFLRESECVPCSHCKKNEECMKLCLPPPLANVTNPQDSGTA
Excerpt: (§1) BIAcore was done to determine the association and dissociation rates of the different dAbs and in that way establish their binding affinity for both human and mouse TNFR1. Experiments were done using biotinylated TNFR1 (R&D Systems), of the respective species, coupled to streptavidin-coated BIAcore chips followed by injection of a concentration range of the dAbs.

[5] = biological target: T1, human TNFR1 (recombinant, R&D Systems …); test: BIAcore, human TNFR1 on SA chip
Excerpt: as §1

[6] = biological target: T2, human TNFR1 on MRC-5 cells; test: cell-based or functional assay; remark: listed apart in the source
[7] = biological target: T2, human TNFR1 on MRC-5 cells; test: cell-based or functional assay; remark: listed apart in the source
[8] = biological target: T3, mouse TNFR1 on L929 cells; test: cell-based or functional assay; remark: listed apart in the source
[9] = biological target: T5, Cynomologus monkey TNFR1 on CYNOM-K1 cells (Cynomolgus monkey, UniProt Q2PFV5 30-455); test: cell-based or functional assay
T5 sequence: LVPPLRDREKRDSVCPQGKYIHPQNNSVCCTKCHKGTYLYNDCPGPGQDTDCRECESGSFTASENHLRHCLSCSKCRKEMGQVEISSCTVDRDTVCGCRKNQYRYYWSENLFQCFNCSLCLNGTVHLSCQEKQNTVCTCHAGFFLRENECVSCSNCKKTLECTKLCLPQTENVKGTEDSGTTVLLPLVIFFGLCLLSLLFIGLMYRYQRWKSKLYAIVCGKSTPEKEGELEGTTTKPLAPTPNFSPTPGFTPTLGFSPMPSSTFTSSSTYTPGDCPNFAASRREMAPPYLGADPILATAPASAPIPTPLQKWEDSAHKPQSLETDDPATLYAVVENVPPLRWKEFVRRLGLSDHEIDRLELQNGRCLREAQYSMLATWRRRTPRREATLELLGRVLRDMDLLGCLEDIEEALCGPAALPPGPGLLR

[10] = biological target: T1, human TNFR1 (recombinant, R&D Systems …); test: BIAcore T100, biotinylated human TNFR1 on chip
Method: Furthermore, the affinity and potency of the purified fusion molecules were determined using a BIAcore T100 and the MRC5 cell assay, respectively. The BIAcore T100 is a highly sensitive BIAcore version ideally suited for determination of high affinity binders (Papalia et al., Anal Biochem. 359, p 112 (2006)). Biotinylated, human TNFR1 was coated on the chip and each of the twelve AlbudAb fusions were passed over this surface at four different concentrations (2, 10, 50 and 250 nM). […] This improvement is observed regardless of the AlbudAb used for pairing and largest for the pairings with DOM7h-14-18. A second experiment used to establish if the different pairings affected the functional activity of the anti-TNFR1 dAb was the MRC5 cell assay (Table 8). A more marked difference between the pairings is observed in the MRC5 assay, in which the best potencies are observed in pairings with DOM7h-11-3 and DOM7h-11-12 while pairings with DOM7h-14-10 (DMS0117) lead to significant decreases in potency.

[11] = biological target: T2, human TNFR1 on MRC-5 cells; test: cell-based or functional assay; remark: listed apart in the source
[12] = biological target: T6, human serum albumin (HSA, Sigma-Aldrich) (human, UniProt P02768 25-609); test: BIAcore, HSA on CM5 chip
T6 construct: also called human albumin
T6 sequence (P02768 25-609 limits assumed): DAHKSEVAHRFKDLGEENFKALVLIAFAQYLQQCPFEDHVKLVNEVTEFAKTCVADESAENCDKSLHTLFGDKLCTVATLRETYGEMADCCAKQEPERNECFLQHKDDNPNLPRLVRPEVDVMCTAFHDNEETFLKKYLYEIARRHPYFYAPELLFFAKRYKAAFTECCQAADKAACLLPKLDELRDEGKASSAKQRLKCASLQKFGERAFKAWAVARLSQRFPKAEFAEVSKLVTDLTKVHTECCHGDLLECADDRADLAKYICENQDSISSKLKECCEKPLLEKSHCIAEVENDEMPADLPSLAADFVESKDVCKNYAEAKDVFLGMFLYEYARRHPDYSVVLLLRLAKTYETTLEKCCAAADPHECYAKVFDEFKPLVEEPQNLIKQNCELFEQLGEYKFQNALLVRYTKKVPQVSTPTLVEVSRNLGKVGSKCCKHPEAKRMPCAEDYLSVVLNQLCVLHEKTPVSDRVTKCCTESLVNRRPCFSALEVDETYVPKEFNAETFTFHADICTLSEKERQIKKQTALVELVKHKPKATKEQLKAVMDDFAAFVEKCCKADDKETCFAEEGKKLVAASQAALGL
Method: (§2) FIG. 23. BIAcore analysis for binding of DOM0100-AlbudAb in-line fusions to human serum albumin (HSA). HSA (Sigma-Aldrich) was coated on a BIAcore CM5 chip using EDC/NHS chemistry according to manufacturer's instructions. Subsequently, the DMS constructs, each consisting N-terminally to C-terminally of an anti-TNFR1 dAb-Linker-AlbudAb and identified in Table 6, were injected at 1 μM over the HSA surface and binding was monitored. […] The corresponding BIAcore trace for each DMS clone is indicated with an arrow.

[13] = biological target: T7, mouse serum albumin (MSA, Sigma-Aldrich) (mouse, UniProt P07724 25-608); test: BIAcore, MSA on CM5 chip
T7 construct: also called mouse albumin
Method: as §2, with “22.” for “23.”, “mouse” for “human”, “(MSA). MSA” for “(HSA). HSA”, “MSA” for “HSA”
After expression and purification, all constructs were tested on the BIAcore for binding to both mouse and human serum albumin. The off-rates were determined and used to discriminate between the AlbudAbs for their suitability in prolonging the half-life of the fusion molecule. Whereas the linker had little influence on the affinity of the AlbudAb for albumin, a significant difference existed between the dAbs and their albumin affinity. The best AlbudAb for mouse binding was DOM7h-11-15 followed by DOM7m-16 and DOM7h-11-12 (FIG. 22).

Kd [1]: 0.25 nM
koff [1]: 4.6e-05 s⁻¹
kon [1]: 190000 M⁻¹ s⁻¹
MRC5 ND50 [2]: 1.04 nM
L929 ND50 [3]: 6.8 nM
B1: DMS0132 (bispecific antibody)
chain: EVQLLESGGGLVQPGGSLRLSCAASGFTFVKYSMGWVRQAPGKGLEWVSQISDTADRTYYAHSVKGRFTISRDNSKNTLYLQMNSLRAEDTAVYYCAIYTGRWVPFEYWGQGTLVTVSSASTDIQMTQSPSSLSASVGDRVTITCRASRPIGTTLSWYQQKPGKAPKLLILWNSRLQSGVPSRFSGSGSGTDFTLTISSLQPEDFATYYCAQAGTHPTTFGQGTKVEIKR
notes: anti-TNFR1 dAb / AlbudAb in-line fusion

Kd [1]: 0.2 nM
koff [1]: 3.6e-05 s⁻¹
kon [1]: ~180000 M⁻¹ s⁻¹
MRC5 ND50 [2]: 0.99 nM
L929 ND50 [3]: 4.2 nM
B2: DMS0133 (bispecific antibody)
chain: B1 chain with V30F, V104A
notes: as for B1

Kd [1]: 0.32 nM
koff [1]: 5.7e-05 s⁻¹
kon [1]: 180000 M⁻¹ s⁻¹
MRC5 ND50 [2]: 1.17 nM
L929 ND50 [3]: 5.9 nM
B3: DMS0135 (bispecific antibody)
chain: B1 chain with V30F, A61S
notes: as for B1

Kd [1]: 0.26 nM
koff [1]: 4.9e-05 s⁻¹
kon [1]: 190000 M⁻¹ s⁻¹
MRC5 ND50 [2]: 0.96 nM
L929 ND50 [3]: 5.8 nM
B4: DMS0134 (bispecific antibody)
chain: B1 chain with V30F
notes: as for B1

Kd [4]: 6.9 nM
koff [4]: 0.00068 s⁻¹
kon [4]: 100000 M⁻¹ s⁻¹
Kd [5]: 0.35 nM
koff [5]: 8.4e-05 s⁻¹
kon [5]: 250000 M⁻¹ s⁻¹
MRC5 (ND50 in nM) [6]: 2.7 nM
Human MRC5 ND50 [7]: 2.7 nM
Mouse L929 ND50 [8]: 46 nM
Cynomologus CYNOM-K1 ND50 [9]: 2.3 nM
Kd [10]: 0.53 nM
koff [10]: 0.00011 s⁻¹
kon [10]: 200000 M⁻¹ s⁻¹
B5: DOM1h-574-72 (other)
VH: EVQLLESGGGLVQPGGSLRLSCAASGFTFVKYSMGWVRQAPGKGLEWVSQISNTADRTYYAHSVKGRFTISRDNSKNTLYLQMNSLRAEDTAVYYCAIYTGRWVPFEYWGQGTLVTVSS
notes: VH dAb; expressed in E. coli, purified on Protein A

ND50 (MRC5) [11]: 17 nM
koff [12]: 0.12 s⁻¹
koff [13]: 0.08 s⁻¹
B6: DMS0188 (bispecific antibody)
chain: EVQLLESGGGLVQPGGSLRLSCAASGFTFVKYSMGWVRQAPGKGPEWVSQISNTGDRTYYADSVKGRFTISRDNSKNTLYLQMNSLRAEDTAVYYCAIYTGRWEPFDYWGQGTLVTVSSASTSGPSDIQMTQSPSSLSASVGDRVTITCRASRPIGTMLSWYQQKPGKAPKLLILFGSRLQSGVPSRFSGSGSGTDFTLTISSLQPEDFATYYCAQAGTHPTTFGQGTKVEIKRAAAEQKLISEEDLN
notes: as for B1

ND50 (MRC5) [11]: 12 nM
koff [12]: 0.0024 s⁻¹
koff [13]: 0.0062 s⁻¹
B7: DMS0163 (bispecific antibody)
chain: B6 chain with F176A, G177F
notes: as for B1

ND50 (MRC5) [11]: 20 nM
koff [12]: 0.12 s⁻¹
koff [13]: 0.08 s⁻¹
B8: DMS0186 (bispecific antibody)
chain: EVQLLESGGGLVQPGGSLRLSCAASGFTFVKYSMGWVRQAPGKGPEWVSQISNTGDRTYYADSVKGRFTISRDNSKNTLYLQMNSLRAEDTAVYYCAIYTGRWEPFDYWGQGTLVTVSSASTDIQMTQSPSSLSASVGDRVTITCRASRPIGTMLSWYQQKPGKAPKLLILFGSRLQSGVPSRFSGSGSGTDFTLTISSLQPEDFATYYCAQAGTHPTTFGQGTKVEIKRAAAEQKLISEEDLN
notes: as for B1

ND50 (MRC5) [11]: 19 nM
koff [12]: 0.16 s⁻¹
koff [13]: 0.72 s⁻¹
B9: DMS0184 (bispecific antibody)
chain: EVQLLESGGGLVQPGGSLRLSCAASGFTFVKYSMGWVRQAPGKGPEWVSQISNTGDRTYYADSVKGRFTISRDNSKNTLYLQMNSLRAEDTAVYYCAIYTGRWEPFDYWGQGTLVTVSSASTSGPSDIQMTQSPSSLSASVGDRVTITCRASRPIGTTLSWYQQKPGKAPKLLIWFGSRLQSGVPSRFSGSGSGTDFTLTISSLQPEDFATYYCAQAGTHPTTFGQGTKVEIKR
notes: as for B1
